The numbers were not newly measured in PMC3950513, which cites them from elsewhere.

The target in the data set is MukB (Escherichia coli) (UniProt P22523).
Sequence of UniProt P22523 (P22523 whole entry): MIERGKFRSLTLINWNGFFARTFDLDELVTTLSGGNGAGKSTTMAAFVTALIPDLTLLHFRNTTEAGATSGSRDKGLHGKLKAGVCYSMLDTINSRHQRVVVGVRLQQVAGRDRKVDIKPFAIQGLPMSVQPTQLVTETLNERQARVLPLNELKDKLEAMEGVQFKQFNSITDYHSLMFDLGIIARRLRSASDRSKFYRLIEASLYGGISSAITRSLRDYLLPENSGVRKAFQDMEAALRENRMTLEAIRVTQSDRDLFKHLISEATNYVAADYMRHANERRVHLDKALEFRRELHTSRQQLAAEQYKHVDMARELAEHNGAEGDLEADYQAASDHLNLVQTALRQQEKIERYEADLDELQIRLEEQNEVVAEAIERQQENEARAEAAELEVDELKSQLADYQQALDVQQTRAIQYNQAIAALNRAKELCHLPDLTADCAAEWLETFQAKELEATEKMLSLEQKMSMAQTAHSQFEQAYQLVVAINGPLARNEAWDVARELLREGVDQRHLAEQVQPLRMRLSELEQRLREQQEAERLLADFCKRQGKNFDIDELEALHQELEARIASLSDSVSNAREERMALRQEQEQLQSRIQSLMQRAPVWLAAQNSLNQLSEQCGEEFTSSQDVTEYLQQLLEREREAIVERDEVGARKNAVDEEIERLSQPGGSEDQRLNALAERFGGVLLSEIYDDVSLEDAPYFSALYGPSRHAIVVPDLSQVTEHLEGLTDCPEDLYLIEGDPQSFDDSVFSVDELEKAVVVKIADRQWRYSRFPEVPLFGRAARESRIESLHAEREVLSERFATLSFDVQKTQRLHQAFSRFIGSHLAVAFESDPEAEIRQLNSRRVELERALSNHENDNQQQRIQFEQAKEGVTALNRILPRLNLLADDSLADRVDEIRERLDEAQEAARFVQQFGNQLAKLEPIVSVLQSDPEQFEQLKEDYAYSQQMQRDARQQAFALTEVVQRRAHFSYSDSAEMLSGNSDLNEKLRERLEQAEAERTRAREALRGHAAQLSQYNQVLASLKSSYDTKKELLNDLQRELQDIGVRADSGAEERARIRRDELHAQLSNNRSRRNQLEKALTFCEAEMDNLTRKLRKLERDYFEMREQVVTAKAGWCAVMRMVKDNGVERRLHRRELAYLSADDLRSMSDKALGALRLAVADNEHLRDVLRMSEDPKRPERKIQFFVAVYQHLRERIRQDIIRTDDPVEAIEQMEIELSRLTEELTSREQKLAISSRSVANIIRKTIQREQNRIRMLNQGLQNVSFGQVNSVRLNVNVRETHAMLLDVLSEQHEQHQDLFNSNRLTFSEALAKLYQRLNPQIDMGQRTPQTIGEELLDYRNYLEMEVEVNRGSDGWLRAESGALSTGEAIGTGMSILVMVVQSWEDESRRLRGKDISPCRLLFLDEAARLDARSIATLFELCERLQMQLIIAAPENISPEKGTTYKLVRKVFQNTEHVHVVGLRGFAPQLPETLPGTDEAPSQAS

On to ParC (from UniProt P0AFI2), for which the Kd – broadly, the free concentration of one partner at which half of the binding sites on the other are occupied at equilibrium, for simple one-to-one binding – is 500 nM.
